Reference: PMC4461315, “A Mutant Library Approach to Identify Improved Meningococcal Factor H Binding Protein Vaccine Antigens” (PLoS ONE, 2015)

Target: T1, human complement Factor H (human, UniProt P08603 19-1231)
T1 construct: also called FH; human FH; source: bought: Complement Technologies (purified human FH)
Assay: SPR
Settings: both partners purified

T1 sequence (P08603 19-1231): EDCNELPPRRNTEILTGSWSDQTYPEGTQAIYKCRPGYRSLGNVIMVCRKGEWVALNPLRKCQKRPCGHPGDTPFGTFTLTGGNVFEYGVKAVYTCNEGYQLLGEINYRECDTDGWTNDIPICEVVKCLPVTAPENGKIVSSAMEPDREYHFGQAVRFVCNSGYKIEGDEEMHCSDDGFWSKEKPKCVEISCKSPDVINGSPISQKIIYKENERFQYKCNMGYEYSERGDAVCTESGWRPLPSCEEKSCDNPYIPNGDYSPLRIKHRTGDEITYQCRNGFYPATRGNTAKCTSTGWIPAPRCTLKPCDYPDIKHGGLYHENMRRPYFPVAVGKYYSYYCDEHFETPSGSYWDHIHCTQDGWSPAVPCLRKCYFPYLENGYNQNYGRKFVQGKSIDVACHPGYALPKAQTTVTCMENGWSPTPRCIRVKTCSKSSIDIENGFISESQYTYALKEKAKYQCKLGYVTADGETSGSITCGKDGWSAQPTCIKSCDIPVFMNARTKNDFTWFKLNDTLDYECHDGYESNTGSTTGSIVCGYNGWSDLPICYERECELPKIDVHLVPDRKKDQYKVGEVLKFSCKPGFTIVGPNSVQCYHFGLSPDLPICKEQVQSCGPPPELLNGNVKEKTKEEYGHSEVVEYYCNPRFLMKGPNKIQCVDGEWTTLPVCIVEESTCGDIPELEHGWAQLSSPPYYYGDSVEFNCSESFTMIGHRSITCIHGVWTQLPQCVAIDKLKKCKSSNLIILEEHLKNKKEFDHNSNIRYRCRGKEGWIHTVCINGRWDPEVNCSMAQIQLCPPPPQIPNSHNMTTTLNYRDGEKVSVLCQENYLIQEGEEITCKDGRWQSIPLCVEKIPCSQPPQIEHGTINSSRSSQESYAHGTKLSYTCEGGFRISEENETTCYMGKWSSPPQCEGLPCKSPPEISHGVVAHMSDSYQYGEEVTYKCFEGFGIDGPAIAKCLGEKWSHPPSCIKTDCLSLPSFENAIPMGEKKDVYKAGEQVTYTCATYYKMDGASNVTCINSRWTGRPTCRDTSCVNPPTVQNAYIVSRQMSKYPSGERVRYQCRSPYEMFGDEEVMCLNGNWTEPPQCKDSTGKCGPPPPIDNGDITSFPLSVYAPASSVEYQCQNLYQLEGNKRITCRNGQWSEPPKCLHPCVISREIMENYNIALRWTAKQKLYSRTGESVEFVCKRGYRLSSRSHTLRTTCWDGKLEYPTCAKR

B1: wild-type FHbp ID 1, soluble recombinant (natural protein)
chain: CSSGGGGVAADIGAGLADALTAPLDHKDKGLQSLTLDQSVRKNEKLKLAAQGAEKTYGNGDSLNTGKLKNDKVSRFDFIRQIEVDGQLITLESGEFQVYKQSHSALTAFQTEQIQDSEHSGKMVAKRQFRIGDIAGEHTSFDKLPEGGRATYRGTAFGSDDAGGKLTYTIDFAAKQGNGKIEHLKSPELNVDLAAADIKPDGKRHAVISGSVLYNQAEKGSYSLGIFGGKAQEVAGSAEVKTVNGIRHIGLAAKQ
notes: also called WT
Work on B1 yielded a Kd of 17 nM.
